Article PMC5021521, “Coordinated recruitment of Spir actin nucleators and myosin V motors to Rab11 vesicle membranes” (eLife, 2016)
Residue numbers refer to the chain shown, from its start. In names and notes the source's numbering stands.

Key:
GST-Rab11a-Q70L = assay: GST-pulldown from HEK293 lysates; assay type: binding; details: HEK293 lysates over-expressing Myc-Spir-2, Straw-FMN2-FH2-FSI and GFP-MyoVa-FL; N = 2
Protocol: HEK293 cells were co-transfected with expression vectors encoding Myc-Spir-2-FL, mStrawberry-FMN2-FH2-FSI, eGFP-MyoVa-D-FL and eGFP-MyoVa-D-Q1753R, respectively. 24 hr post transfection, cells were lysed in lysis buffer (25 mM Tris-HCl pH 7.4, 150 mM NaCl, 5 mM MgCl2, 10% (v/v) glycerol, 0.1% (v/v) Nonidet P-40, 1 mM PMSF, protease inhibitor cocktail) and centrifuged at 20,000 x g, 4°C, 20 min to remove insoluble debris. For GST-pulldown assays 65 µg GST-Rab11a-Q70L protein (25 µg GST control) was coupled to GSH-Sepharose 4B beads (1:1 suspension) for 1 hr, 4°C on a rotating wheel. Beads were washed twice with pulldown buffer (25 mM Tris-HCl pH 7.4, 150 mM NaCl, 5 mM MgCl2, 10% (v/v) glycerol, 0.1% (v/v) Nonidet P-40) and subsequently incubated with the cell lysates for 2 hr at 4°C on a rotating wheel. Beads were washed four times with pulldown buffer and bound proteins were eluted with 1x Laemmli buffer and denatured at 95°C for 10 min, then were analyzed by immunoblotting.

HeLa cells = assay: Subcellular localization by fluorescence microscopy; assay type: cell-based; details: single expression
Protocol: (§1) HeLa cells were seeded on microscope cover glasses and transfected with Myc-epitope-tagged Spir-2 proteins and fluorescently-tagged MyoV and Rab11 proteins as described above. Cells were fixed with paraformaldehyde (3.7% in 1x PBS) for 20 min at 4°C and subsequently permeabilized using 0.2% Triton X-100 (in 1x PBS) for 3.5 min, room temperature. Cells were incubated with anti-c-Myc antibody (9E10, mouse monoclonal, 2 µg/ml, Santa Cruz Biotechnology; RRID: AB_627268) for 1 hr at room temperature and conjugated anti-mouse secondary antibodies (Cy5; from donkey, 3.25 µg/ml, Dianova (RRID: AB_2340820) and TRITC; from donkey, 3.125 µg/ml, Dianova (RRID: AB_2340767)) for 1 hr at room temperature avoiding exposure to light. Finally, cells were mounted on microscope slides with Mowiol and analyzed with a Leica AF6000LX fluorescence microscope, equipped with a Leica HCX PL APO 63x/1.3 GLYC objective and a Leica DFC350 FX digital camera (1392 × 1040 pixels, 6.45 × 6.45 µm pixel size). 3D stacks were recorded and processed with the Leica deconvolution software module. In case of the MyoVa autoregulation/activation experiments, we quantified the MyoVa expression levels. […] In order to clearly distinguish between vesicular and cytoplasmic MyoVa localization, we imaged either high or low expressing cells and determined the sum of pixel gray values per cell as a measure for the MyoVa expression levels. Based on that, we only used cells for the autoregulation analysis having a sum of pixel gray values less than 20 × 10^6 for the expression of GFP-MyoVa-D-FL. Images were recorded using the Leica LASX software and further processed with Adobe Photoshop and subsequently assembled with Adobe Illustrator.

Myc-Spir-2 = assay: Colocalization with Spir-2 on vesicular structures in HeLa cells; assay type: cell-based, Homo sapiens; details: full-length proteins co-expressed
Protocol: as §1, with “Cells were incubated with anti-c-Myc antibody (9E10, mouse monoclonal, 2 µg/ml, Santa Cruz Biotechnology; RRID: AB_627268) for 1 hr at room temperature and conjugated anti-mouse secondary antibodies (Cy5; from donkey, 3.25 µg/ml, Dianova (RRID: AB_2340820) and TRITC; from donkey, 3.125 µg/ml, Dianova (RRID: AB_2340767)) for 1 hr at room temperature avoiding exposure to light.” left out, “Based on that, we only used cells for the autoregulation analysis having a sum of pixel gray values less than 20 × 10^6 for the expression of GFP-MyoVa-D-FL.” left out

GST-MyoVa-GTD [1] = assay: Quantitative GST-pulldown, fluorescence spectroscopy, Spir-2-linker; assay type: binding, Mus musculus; details: 100 nM His6-mCherry-Spir-2-linker (aa 361–519); SPECS buffer (1x PBS, 50 mM NaCl), 20°C; depletion of mCherry fluorescence (ex 548 nm, em 610 nm); ± SEM, n = 4 experimental repeats; read-out: dissociation constant (Kd)
Protocol: (§2) For GST-pulldown assays, 50 µg of GST-fusion protein was coupled to GSH-Sepharose 4B beads (1:1 suspension) for 1 hr at 4°C on a rotating wheel. Beads were washed twice with pulldown buffer and subsequently incubated with 20 µg His6-mCherry-fusion peptides for 2 hr, 4°C on a rotating wheel. In order to identify the tripartite Spir-2:MyoVa:Rab11a complex, 65 µg GST-Spir-2-GTBM-SB-FYVE was coupled to beads. Subsequently, beads were incubated with 40 µg MyoVa-GTD and 35 µg Rab11a-Q70L simultaneously for 2 hr. Beads were washed four times with pulldown buffer and bound proteins were eluted by 1x Laemmli buffer and denatured at 95°C for 10 min. Pulled proteins were analyzed by immunoblotting.
GST-pulldown assays were performed as described above with increasing concentrations of GST-MyoVa/b-GTD fusion proteins and 100 nM His6-mCherry-Spir-2-linker peptide in SPECS buffer (1x PBS, 50 mM NaCl). Beads were pelleted and the supernatant was centrifuged for 10 min at 20,000 x g to remove potential debris that could disturb the fluorescence measurement. […] The concentration-dependent binding of MyoVa/b-GTD to the Spir-2-linker was determined by fluorospectrometric analysis using FluoroMax-4 Spectrofluorometer (Horiba Jobin Yvon, Bensheim, Germany). The mCherry red fluorescent protein was excited at 548 nm and the emission at 610 nm was recorded (emission maximum). […]

[2] = tested on: Spir-2:MyoVa:Rab11 tripartite complex; assay: Analytical gel filtration; assay type: binding, Homo sapiens; details: Superdex 200 10/30; 50 mM Tris pH 8.0, 150 mM NaCl, 2 mM MgCl2, 2 mM TCEP
Protocol: (§3) Complex formations were analyzed by analytical gel-filtration using Superdex 200 10/30 Increase column (GE Healthcare Life Sciences) and UV light absorbance at 280 nm and 260 nm and Visible light absorbance at 587 nm at flow rate of 0.75 ml/min in 50 mM Tris pH 8.0, 150 mM NaCl, 2 mM MgCl2, 2 mM TCEP buffer. Fractions of 500 µl were collected and analyzed by SDS-PAGE.
(§4) A 100 µl sample of His6-Rab11a-1-173-Q70L at 6 mg/ml, or of MyoVa-GTD at 5 mg/ml or of His6-mCherry-Spir-2-linker at 6 mg/ml were centrifuged at 10,000 x g for 10 min and injected into the column to monitor reference elution profiles of the individual proteins. The proteins were mixed pairwise to the same final concentrations and incubated 30 min at 4°C in a total volume of 100 µl. The two-component complexes (His6-mCherry-Spir-2-linker:MyoVa-GTD and MyoVa-GTD:His6-Rab11a-1-173-Q70L) were confirmed by the elution peak shifts and SDS-PAGE analysis. […] The tripartite His6-mCherry-Spir-2-linker:MyoVa-GTD:His6-Rab11a-1-173-Q70L complex was analyzed at the same concentration of the individual components and confirmed by SDS-PAGE.

GST-MyoVa-GTD [3] = assay: GST-pulldown with purified proteins; assay type: binding, Mus musculus; details: purified His6-mCherry-Spir-2-linker mutant L408A,L409A; N = 4
Protocol: as §2

GST-MyoVb-GTD = assay: GST-pulldown with purified proteins; assay type: binding, Homo sapiens; details: purified His6-mCherry-Spir-2-linker mutant L408A,L409A; N = 4
Protocol: as §2

[4] = Analytical gel filtration, individual protein; assay type: physicochemical; details: Figure 5—figure supplement 2
Protocol: as §3, §4

Molecule: GFP-MyoVa-FL: eGFP-tagged full-length MyoVa
- pulldown by GST-Rab11a-Q70L in words (GST-Rab11a-Q70L): able to pull GFP-MyoVa-FL from cell lysates
- subcellular localization in words (HeLa cells): even cytoplasmic distribution
- colocalization with Spir-2 in words (Myc-Spir-2): perfect colocalization

B1: mCherry-Spir2-linker: His6-mCherry-hs-Spir2-linker aa 361 - 519 (protein)
chain: GEGWAARGFGSLPCILNACSGDAKSTSCINLSVTDAGGSAQRPRPRVLLKAPTLAEMEEMNTSEEEESPCGEVTLKRDRSFSEHDLAQLRSEVASGLQSATHPPGGTEPPRPRAGSAHVWRPGSRDQGTCPASVSDPSHPLLSNRGSSGDRPEASMTPD
modifications: left off: His6, N-terminal, kept | mCherry, N-terminal, kept
- Kd (GST-MyoVa-GTD [1]): 728 ± 113 nM
- co-elution in gel filtration in words [2]: co-elution of all three proteins

B2: Spir-2-linker-LALA: His6-mCherry-hs-Spir2-linker-L408A,L409A (protein)
chain: B1 chain with L48A, L49A
modifications: left off: His6, N-terminal, kept | mCherry, N-terminal, kept
notes: His6-mCherry-hs-Spir2-linker-L408A,L409A
- binding to GST-MyoVa-GTD in words (GST-MyoVa-GTD [3]): largely impairs binding
- binding to GST-MyoVb-GTD in words (GST-MyoVb-GTD): largely impairs binding

B3: MyoVa-GTD: purified hs-MyoVa-GTD aa 1461 - 1853; in Figure 3E the label stands for AcGFP-mm-MyoVa-GTD donor alone (protein)
chain: IRPVNIPRKEKDFQGMLEYKKEDEQKLVKNLILELKPRGVAVNLIPGLPAYILFMCVRHADYLNDDQKVRSLLTSTINSIKKVLKKRGDDFETVSFWLSNTCRFLHCLKQYSGEEGFMKHNTSRQNEHCLTNFDLAEYRQVLSDLAIQIYQQLVRVLENILQPMIVSGMLEHETIQGVSGVKPTGLRKRTSSIADEGTYTLDSILRQLNSFHSVMCQHGMDPELIKQVVKQMFYIIGAITLNNLLLRKDMCSWSKGMQIRYNVSQLEEWLRDKNLMNSGAKETLEPLIQAAQLLQVKKKTDDDAEAICSMCNALTTAQIVKVLNLYTPVNEFEERVSVSFIRTIQMRLRDRKDSPQLLMDAKHIFPVTFPFNPSSLALETIQIPASLGLGFIS
modifications: left off: His6, N-terminal, cleaved
- co-elution in gel filtration in words [2]: co-elution of all three proteins
- oligomeric state in solution [4]: monomeric in solution
